Reference: the nanobody polyreactivity screen of Harvey et al. (2022)

Assay: yeast display, Sf9 membrane polyspecificity reagent, FACS + sequencing; frameworks hold sequencing errors
How it was run: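 Polyreactivity labels are assigned by the sorting gate from which each nanobody was recovered. The gates were low and high (top ~1%), set on anti-HA fluorescence for expression and streptavidin fluorescence for reagent binding. Before sorting, galactose-induced (36–48 hours) yeast display cells were stained for 1 hour at 4 °C with 10% biotinylated, detergent-solubilized Sf9 membrane reagent.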
With “QVQLVESGGGLVQAGGSLRLSCAASGSTFGYYAMGWYRQAPGKERELVAVITRGGSTYYADSVKGRFTISRDNAKNTVYLQMNSLKQEDTAVYYCNARVLAVHYGYWGQGTQVTVSS” the “polyreactivity (PSR sort gate)” value was “high polyreactivity”. In the case of “QVQLVESGGGLVQAGGSLRLSCAASGSTFGYYDMGWYRQAPGKERELVATITKSGGTTRYADSVKGRFTISRDNAKNTVYLQMNSLKPEDTAVYYCAADGTWRLLDDYWGQGTQVTVSS”, the “polyreactivity (PSR sort gate)” value is reported as “low polyreactivity”. In the case of “QVQLVESGGGLVQAGGSLRLSCAASGSTFGYYGMGWYRQAPGKERELVAAISASGGRTYYADSVKGRFTISRDNAKITVYLQMNSLKPEDTAVYYCAATVYAWRSTYGYWGQGTQVTVSS”, the “polyreactivity (PSR sort gate)” value is reported as “high polyreactivity”. With “QVQLVESGGGLVQAGGSLRLSCAASGSTFGYYTMGWSRQAPGKERELVAAITWSGGSTYYADSVKGRFTISRHNAKNTVYLQMNSLKAEDTAVYYCAADDYWTPFGYWGQGTQVTVSS” the “polyreactivity (PSR sort gate)” value was “low polyreactivity”. In the case of “QVQLVESGGGLVQAGGSLRLSCAASGSTFGYYTMGWYRQAPGKERELVAAISRSGGRTYYADSVKGRFTISRDNAKKAVYLQMNSLKPEVTAVFYCNADGTRYAGDDYWGQGTQVTVSS”, the “polyreactivity (PSR sort gate)” value is reported as “high polyreactivity”. In the case of “QVQLVESGGGLVQAGGSLRLSCAASGSTFHGYDMGWYRQAPGKERELVAAITSSGDDTYYADSEKGRFTISLDNAKNTVYLQMNSLKPEDTAVYYCAAEYTEGYTHDYWGQGTQVTVSS”, the “polyreactivity (PSR sort gate)” value is reported as “low polyreactivity”. With “QVQLVESGGGLVQAGGSLRLSCAASGSTFHLYAMGWSRQAPGKERELVAVITSGDSTSYADSVKGRFTISRDNAKNTVYLQMNSLKPEDTAVYYCAADSYSGYNYWGQGTQVTVSS” the “polyreactivity (PSR sort gate)” value was “low polyreactivity”. In the case of “QVQLVESGGGLVQAGGSLRLSCAASGSTFHRYAKGSYRQAPGKERELVARIIGSGGSTYYADSVKGRFTISRDNAKNTVYLQMNSLKPEDTAVYYCAADGLYYTYGYDYWGQGTQVTVSS”, the “polyreactivity (PSR sort gate)” value is reported as “low polyreactivity”. In the case of “QVQLVESGGGLVQAGGSLRLSCAASGSTFHRYALGWYRQAPGKERELVATITSRGGITYYADSVKGRFTISRDNAKNTVYLQMNSLKPEDTAVYYCYRYDYWGQGTQVTVSS”, the “polyreactivity (PSR sort gate)” value is reported as “low polyreactivity”. For “QVQLVESGGGLVQAGGSLRLSCAASGSTFHWYVMGWYRQAPGKERELVAAITWSGGSTYYADSVKGRLTISRDNAKNTVYLQMNSLKPEDTAVYYCNAVFWIWNAGYDYWGQGTQVTVSS”, the “polyreactivity (PSR sort gate)” value was “low polyreactivity”. In the case of “QVQLVESGGGLVQAGGSLRLSCAASGSTFHYYAMGWYRQAPGKERELVAAISQSGSGTYYADSVKGRFTISRDNAKNTVYLLMNSLKPEDTAVYYCAKDITGLSRYRRDYWGQGTQVTVSS”, the “polyreactivity (PSR sort gate)” value is reported as “low polyreactivity”. With “QVQLVESGGGLVQAGGSLRLSCAASGSTFHYYAMGWYRQAPGKERELVAAISSGGRTNYADSVKGRFTISRDNAKNTVYLQMNSLKPEDTAVYYCAARWSYTKGEFDYWGQGTQGTVSS” the “polyreactivity (PSR sort gate)” value was “high polyreactivity”. With “QVQLVESGGGLVQAGGSLRLSCAASGSTFHYYVMGWYRQAPGKERELDAAIRRSGGTTYYADSVKGRFTISRDNAKNTVYLQMNSLKPEDTAVYYCAAYFFHYHFYQAAYDYWGQGTQVTVSS” the “polyreactivity (PSR sort gate)” value was “low polyreactivity”. With “QVQLVESGGGLVQAGGSLRLSCAASGSTFIANAMGWYRQAPGKEREFVATISRRGGSTYYADSVKGRFTISRDNAKNTVYLQMNSLKPEDTAVYYCAARPLTYIRFRYYYWGQGTQVSVSS” the “polyreactivity (PSR sort gate)” value was “high polyreactivity”. For “QVQLVESGGGLVQAGGSLRLSCAASGSTFIAYTMGWYRQAPGKERELVAAISGTGGTTYADSVKGRFTISRDNAKNTVYLQMNSLKPEDTAVYYCAAQYRYTYWGQGTQVTVSS”, the “polyreactivity (PSR sort gate)” value was “low polyreactivity”. For “QVQLVESGGGLVQAGGSLRLSCAASGSTFIDYAMGWYRQAPGKERELVAAITWSGSSTYYADSVKGRFTISRDNAKNTVYLQMNSLKPEDTAVYYCAARYWYQSYHTYGYYSWGQGTQVTVSS”, the “polyreactivity (PSR sort gate)” value was “low polyreactivity”. With “QVQLVESGGGLVQAGGSLRLSCAASGSTFIDYAMGWYRQAPGKERELVAGGSTNYADSVKGRFTISRDNAKNTVYLQMNSLKPEYTAVYYCNADALLYPYWGFDYWGQGTQVTVSS” the “polyreactivity (PSR sort gate)” value was “low polyreactivity”. In the case of “QVQLVESGGGLVQAGGSLRLSCAASGSTFIDYDMGWYRQAPGKERELVAAITSSGSTYYADSVKGRFTISRDNAKNTVYLQMNSLKPEDTAVYYCNARVGPELHDYWGQGTQVTVSS”, the “polyreactivity (PSR sort gate)” value is reported as “low polyreactivity”. In the case of “QVQLVESGGGLVQAGGSLRLSCAASGSTFIDYGMGWYRQAPGKERELVAAIDLDSGDTYYADSVKGRFTISRENAKNTVYLQMNSLKPEDTAVYYCAAQYWYRYNYWGQGTQVTVSS”, the “polyreactivity (PSR sort gate)” value is reported as “low polyreactivity”. For “QVQLVESGGGLVQAGGSLRLSCAASGSTFIENAMGWYRQAPGKERELVAAINRGGTTYYADSVKGRFTISRDNAKNTVYLQMNSLKPEDTAVYYCAADDPSYANRFIHDYWGQGTHVTVSS”, the “polyreactivity (PSR sort gate)” value was “low polyreactivity”. For “QVQLVESGGGLVQAGGSLRLSCAASGSTFIGNAMGWYRQAPGKERELVAAISRTGGSTYADSVKGRFTISRDNAKNTVYLQMNSLKPEDTAVYYCAAKYYYIYYYWGQGTQVTVSS”, the “polyreactivity (PSR sort gate)” value was “high polyreactivity”. For “QVQLVESGGGLVQAGGSLRLSCAASGSTFIGNAMGWYRQAPGKERELVAAITRSGGSTFYADSVKGRFTISRDNAKNTVYLQMNSLKPEDTAVYYCAARNGAYPALTAGDYWGQGTQVTVSS”, the “polyreactivity (PSR sort gate)” value was “high polyreactivity”. For “QVQLVESGGGLVQAGGSLRLSCAASGSTFIGNAMGWYRQAPGKERELVAAITSSGGSTYYADSVKGRFTISRDNAKNTVYLQLNSLKPEDTAVYYCAAKTWARGHYGYQARSNYWGQGTQVTVSS”, the “polyreactivity (PSR sort gate)” value was “high polyreactivity”. In the case of “QVQLVESGGGLVQAGGSLRLSCAASGSTFIGYVMGWYRQAPGKERELVAAISWTGSNKYYADSVKGRFTISRDNAKNTVYLQMNSLKPEDTAVYYCNARSFAPYKNYDYWGQGTQVTVSS”, the “polyreactivity (PSR sort gate)” value is reported as “low polyreactivity”. For “QVQLVESGGGLVQAGGSLRLSCAASGSTFINYARGWYSQAPGKERELVAVITSDDGSTYDADSVKGRFTISRDNAKNTVYLQMNSLKPEDTAVYYCAAYYYDQRYRPGPWYDYWGQGTQVTVSS”, the “polyreactivity (PSR sort gate)” value was “low polyreactivity”. For “QVQLVESGGGLVQAGGSLRLSCAASGSTFIPNTMGWYRQAPGKERELVAAISRRGGSTNYADSVKGRFTISRDNAKNTVYLQMNSLKPEDTAVYYCAAVSPRRYRYDYWGQGTQVTVSS”, the “polyreactivity (PSR sort gate)” value was “high polyreactivity”. For “QVQLVESGGGLVQAGGSLRLSCAASGSTFIPYAMGWYRQAPGKERELVAAIRGGDGSTYYADSVKGRFTISRDNAKNTVYLQMNSLKPEDTAVYYFAADTVITAYFDRFWRYNYWGQGTQVTVSS”, the “polyreactivity (PSR sort gate)” value was “low polyreactivity”. In the case of “QVQLVESGGGLVQAGGSLRLSCAASGSTFIPYAMGWYRQAPGKERELVAAISFNDGITYYADSVKGRFKISRDNAKNTVYLQMNSLKPEDTAVYYCAAEDWSDYPYGMDYWGQGTQVTVSS”, the “polyreactivity (PSR sort gate)” value is reported as “high polyreactivity”. For “QVQLVESGGGLVQAGGSLRLSCAASGSTFIRNAMGWYRPAPGKERELVAAISSSGGRTYYADSVKGRFTISRDNAKNTVYLQMNSLKPEDTAVYYCAARNARYVHTMEYWGQGTQVTVSS”, the “polyreactivity (PSR sort gate)” value was “high polyreactivity”. For “QVQLVESGGGLVQAGGSLRLSCAASGSTFISYAMGWYRQAPGKERELVAAIRYRDGRTYYADSVKGRFTNSRDNAKNTVYLQMISLKPEDTAVYYCAAKYRGLYSGMYYWGQGTQVTVSS”, the “polyreactivity (PSR sort gate)” value was “high polyreactivity”. In the case of “QVQLVESGGGLVQAGGSLRLSCAASGSTFISYDMGWYRQAPGKERELVADITSVGGSTYYADSVKGRFTISRDNAKNTVYLQMNSLKPEDTAVYYCNAEAEWEEEGGSWGQGTQVTVSS”, the “polyreactivity (PSR sort gate)” value is reported as “low polyreactivity”. In the case of “QVQLVESGGGLVQAGGSLRLSCAASGSTFIVNAMGWYRQAPGKERELVATISGGDSTDYADSVKGRFTISRDNAKNTVYLQMNSLKPEDTAVYYCNSDVHQYYFTPYDYWGQGTQVTVSS”, the “polyreactivity (PSR sort gate)” value is reported as “low polyreactivity”. With “QVQLVESGGGLVQAGGSLRLSCAASGSTFIVYAMGWYRQAPGKERELVASITWRGGSTYYADSVKGRFTISRDNAKNTVYFQMNSLKPEDTAVYYCARGYETTNYQKFYITDDGDYWGQGTQVTVSS” the “polyreactivity (PSR sort gate)” value was “low polyreactivity”. With “QVQLVESGGGLVQAGGSLRLSCAASGSTFIWNAMGSYRQAPGKERELVAAISSGGSTYYADSVKGRFTISRDNAKNTVYLQMNSLKPEDTAVYYCAAEYVYNVWEQRYAVYSTDDYWGQGTQVTVSS” the “polyreactivity (PSR sort gate)” value was “low polyreactivity”. In the case of “QVQLVESGGGLVQAGGSLRLSCAASGSTFIWNAMGWYRQAPGKERELVATITGSGDRTTYADSVKGRFTISRDNAKNTVYLQMNSLKPEDTAVYYCAADAYRWWVRYDYWGQGTQVTVSS”, the “polyreactivity (PSR sort gate)” value is reported as “low polyreactivity”. For “QVQLVESGGGLVQAGGSLRLSCAASGSTFIYNAMGWYRQAPGKERELVAAISSGGSTYYADSVKGRFTISRDNAKNTVYLQMNSLKPEDTAVYYCNAYRYRHYRVDYWGQGTQVTVSS”, the “polyreactivity (PSR sort gate)” value was “low polyreactivity”. In the case of “QVQLVESGGGLVQAGGSLRLSCAASGSTFIYNTMGWYRQAPGKEREFVAAITQSGGDTYYADSVKGRFTISRDNAKNTVYLQMNSLKPEDTADYYCAAYWILNNFEMYYWGQGPQVTVSS”, the “polyreactivity (PSR sort gate)” value is reported as “low polyreactivity”. For “QVQLVESGGGLVQAGGSLRLSCAASGSTFIYYAMGWYRQAPGKERELVAAITSAGRTNYADSVKGRFTISRDNAKNTVYLQMNSLKPEDTAVYYCAAAYRPRKHHYDYWGQGTQVTVSS”, the “polyreactivity (PSR sort gate)” value was “high polyreactivity”. For “QVQLVESGGGLVQAGGSLRLSCAASGSTFIYYAMGWYRQAPGKERELVAVITGNGGRTYYADSVKGRFTISRDNAKNTVYLQMNSLKPEDTAVYYCAALYDGIYDSWGQGTQVTVSS”, the “polyreactivity (PSR sort gate)” value was “high polyreactivity”. In the case of “QVQLVESGGGLVQAGGSLRLSCAASGSTFIYYAMGWYRQAPGKEWELVAAITSAGRTNYADSVKGRFTISLDNAKHTVYLQMNSLKPEDTAVYYCAAAYRPRKHHYDYWGQGTQVTVSS”, the “polyreactivity (PSR sort gate)” value is reported as “high polyreactivity”. With “QVQLVESGGGLVQAGGSLRLSCAASGSTFIYYTMGWYRQAPGKERELVAAIPSSGGSTYYADSVKGRFTISRDNAKNTVYLQMNSLKPEDTAVYYCAADGTYIKFAKLYRRYDYWGQGTLVTVSS” the “polyreactivity (PSR sort gate)” value was “low polyreactivity”.
